In general, Km refers to the concentration of substrate that gives half-maximal velocity.

One protein from ChEMBL document CHEMBL1136204, “Thymidine and thymidine-5'-O-monophosphate analogues as inhibitors of Mycobacterium tuberculosis thymidylate kinase” (Bioorg Med Chem Lett, 2003) can be followed below.

Substrate in series [1]: Cc1cn([C@H]2C[C@H](O)[C@@H](COP(=O)(O)O)O2)c(=O)[nH]c1=O
Kind of series: Affinity towards thymidine monophosphate kinase (TMPKmt) in Mycobacterium tuberculosis using HPLC chromatography test.

Substrate in series [2]: Cc1cn([C@H]2C=C[C@@H](COP(=O)(O)O)O2)c(=O)[nH]c1=O
Description: Affinity towards thymidine monophosphate kinase (TMPKmt) in Mycobacterium tuberculosis.

B1: Thymidylate kinase (Mycobacterium tuberculosis), P9WKE1 (protein)
chain: MLIAIEGVDGAGKRTLVEKLSGAFRAAGRSVATLAFPRYGQSVAADIAAEALHGEHGDLASSVYAMATLFALDRAGAVHTIQGLCRGYDVVILDRYVASNAAYSAARLHENAAGKAAAWVQRIEFARLGLPKPDWQVLLAVSAELAGERSRGRAQRDPGRARDNYERDAELQQRTGAVYAELAAQGWGGRWLVVGADVDPGRLAATLAPPDVPS
B1: the Michaelis constant (Km) in series [1] is 40 µM; in series [2], 140 µM.
